Test results: the supplement of paper PMC12042874
± gives the uncertainty stated by the source.

experiment: amyloid nucleation score (Sup35N fusion, yeast selection) (log enrichment); library NNK2; higher = more nucleation; inactive = no reads after selection
How it was run: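 Psi-negative yeast expressed Sup35N fused to peptides of 20 random codons. They were induced 24 hours with 100 μM copper sulfate, grown 7 days at 30°C without adenine and uracil, and their plasmid inserts from input and output were Illumina-sequenced. The nucleation score is the DiMSum log enrichment of output over input reads, centred on the mode score of non-aggregating sequences. Sequences with under 100 input reads were excluded.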

Substance | amyloid nucleation score
SSMLPYSRHTIRVTKVRPPF | 0.561 ± 0.62
KTAVSNVRCMY | -0.227 ± 0.62
NDSFPRDNFVESWQACEILM | -0.78 ± 0.44
TMYVREYSFYFLYNVDITRG | 0.649 ± 0.32
GNYVSTFFKCRILYRMNLMF | -0.121 ± 1.1
LMLRGLEEARAPRCESWPSW | 1.21 ± 0.34
SAPYLIMLRLDSCACGDVF | 2.01 ± 0.083
DGPWGSMDTRYNSS | 0.479 ± 0.74
HYQWQYACLWRCVTVRGSDQ | 0.949 ± 0.17
CAPVTLVFRYAGIYMQLFIW | inactive
PFSCITRLQ | 2.48 ± 0.1
YLLIPWKSKDPLHIGLLF | -0.381 ± 1.1
NRRMRKAEPLP | 0.644 ± 0.81
VLLLGVSVRHFKGLGVPTKR | 5.06 ± 0.065
GMNFHRGLMLNGVCIFSLLW | 0.491 ± 0.38
DRYISLCGW | -0.086 ± 0.56
DTFPKHSQHAVVKRPQIYID | -1.04 ± 1.1
FPLWSCSHTIINML | 5.858 ± 0.037
GTRYDT | 0.468 ± 0.32
FTQTSTVPSKETALALNLMR | 0.688 ± 0.57
FEGQA | -1.8 ± 0.54
YINLIWFSYMFGESFARGQR | 4 ± 0.13

Substance | amyloid nucleation score
VGTWATFYVLTCKGEFDPGL | 7.83 ± 0.083
EVIANWLENGYYVSKTVFVD | -0.026 ± 0.29
TFQSYRDESFSWSRLVSSQR | -0.477 ± 0.26
KNDFLNM | inactive
RCVYNTKVREMPVLVGLRQD | inactive
EILRSGMSCIWVLYDFIGI | -0.437 ± 1
QDRVFYIAYVNNVS | 5.606 ± 0.04
YWNQNCELTVFSN | inactive
CIDVRDTWNVPSVDYSMVLY | -0.363 ± 1.1
AEAISQLEAMR | 1.13 ± 0.39
FHLIALNCRWADDLFIGSGV | 0.374 ± 0.62
VTLQPFCSARSWLEMNVKFF | 4.44 ± 0.066
YFKDLKADVRVKMTKLEWPQ | 2.67 ± 0.12
QSLSTKRRSVFFAGHQARGK | -0.42 ± 0.64
TFVKGKMFNLTRVWVLPYWT | 0.318 ± 0.46
PTAVNSTMYSMYRTGNL | -0.294 ± 0.34
INMGMYDSNVCDA | -0.034 ± 0.65
HSDMFRKIQVLILSVERQNE | inactive
NYRYLLFTSAVDRLQA | -0.117 ± 0.21
LSGSPVYCYCRLR | -0.453 ± 0.78
NIRLRFCFRQMEWHNRFRDC | 3.93 ± 0.069
VTKVCGYLEFSMQVYRCVFH | inactive

Substance | amyloid nucleation score
DSSIAYFIGVLASIGADEDR | 6.452 ± 0.061
FYCVNV | -0.383 ± 0.64
LRAWLSSLAHTKRRCELGTP | 0.575 ± 0.3
NWSFASKVGLQMSKHAVTV | 0.13 ± 0.42
DRHYCQKGEWRKDEDVFPVE | 0.13 ± 1.1
FFSLSQQYSRSVIVYAKLHL | -0.98 ± 0.54
TCELYESHVGTFLHVSSNGT | 1.23 ± 0.12
PIRVSSSVVSWYYFGNSRIW | -1.09 ± 0.62
GDKYCGLEPYGMGHNHMYAL | 0.546 ± 0.56
PVRSRWPFSSSLAAVTTYRV | 1.26 ± 0.41
YFPVIRRDAAFYPFSAPYFN | -2.05 ± 0.77
YFGVLFPVMNWQLSWKNIYW | inactive
EIFAGICSSLAFKGHGRKSG | 6.29 ± 0.065
YLNLYLYCVNSSNDSYV | 6.513 ± 0.031
LCYWPYDSVYLLTRFTVNGF | -0.349 ± 0.25
ASAYSPASRRSTDMADALV | 0.496 ± 0.31
SLVLLNRSANWIDLLNKQQD | 3.62 ± 0.12
YSEVTVRSSAAL | 0.863 ± 0.29
CIVMLRTIIQRSFNMSMTHY | 3.2 ± 0.058
LRDCFVEYEGSSSMYYLRQW | -0.105 ± 0.4
SARPELCMPIIRLCGSREDQ | -0.056 ± 0.22
SLQVDRNWGGS | 0.105 ± 0.55

Substance | amyloid nucleation score
CEVSGYARWLGQHYWSAVRA | 1.69 ± 0.32
LNDSLTIACSTNTANSWRNL | inactive
YPYDWSLLVLELVRQILSMG | 0.704 ± 0.47
QFLAIFCSIT | 7.684 ± 0.043
FRQRDKRVTEMTPAERGGQ | 2.79 ± 0.091
VDARALDMIVVRDQTFRCTM | 1.24 ± 0.33
AVMAISMRS | 0.514 ± 0.56
LVAIDSAFCTLGMPSADPVS | -0.097 ± 0.25
LGVFWIDWPLLLGFRSRTGV | -0.393 ± 1.1
EMGVGSYSGRCATSGGSNLQ | 0.929 ± 0.27
SRHRLAMRTAGTRVVSCWG | 0.285 ± 0.3
KCMQLAAFTRLLWTGPSARG | 1.85 ± 0.1
DNSHWI | 0.903 ± 0.47
SDCGHAEVVCAGNHGGTSYP | 0.326 ± 0.27
VHVVSRAQTCEFF | 0.956 ± 0.67
NTVRRVCFAVVEMSASIMDG | 0.738 ± 0.42
FRFANRVTIKSFLGV | inactive
SSIGKGFSNSYGHAYCKHTW | -0.124 ± 0.76
MSYCNT | 1.77 ± 0.11
PVLIVLYDIGSCKERKE | 0.134 ± 0.55
